Assay results published in patent publication US20070196337A1, “RECOMBINANT PERFORIN, EXPRESSION AND USES THEREOF” (priority 2004, published 2007).

Assays:
[1] = tested on: Sheep red blood cells (sRBC); test: Erythrocyte lysis assay with RBL granule extracts, haemoglobin release; format: cell-based; conditions: WT-Pfp at a 1/8 dilution
Protocol: Sheep red blood cells (sRBC) were washed three times then resuspended at 10^8/mL in 150 mM NaCl. For the assay, 50 ul of freeze/thawed granule extract [fraction #8 (see above)] was incubated with 20 μl of the sRBC suspension in the presence of 2 mM CaCl2 at 37° C. for 30 minutes in v-bottom 96 well plates. For maximal haemoglobin release, H2O was used to lyse the red blood cells. Plates were centrifuged at 1500 rpm for 5 minutes and the haemoglobin released into the supernatant was estimated by measuring the optical density at 405 nm. Cell lysis was expressed as a percentage of maximal haemoglobin release.

Jurkat cells = test: Lysis of Jurkat cells by RBL granule extracts, 4 hour 51Cr release; format: cell-based; conditions: granules diluted 1/32
Protocol: WT-Pfp, P5-Pfp or P6-Pfp was isolated from the RBL granules by nitrogen caviatation and percoll density fractionation of the cellular contents as described by Davis et al (J Immunol Methods. 2003, 276(1-2):59-68). RBL cells (1×10^9) were washed three times in PBS, then resuspended at 1×10^8/ml in relaxation buffer (100 mM KCL, 3.5 mM MgCl2, 1 mM PIPES pH 6.8, 1.25 mM EGTA) and lysed in a nitrogen cavitation apparatus at 450 psi for 20 minutes at 4° C. on a rotating platform. The cell lysate was collected following sudden decompression, and the nuclei removed by centrifugation at 2000 rpm for 10 minutes at 4° C. The nuclei were washed twice with 1 ml relaxation buffer and the supernatants were pooled with the supernatant from the first wash. The pooled supernatants were centrifuged at 2000 rpm for a further 5 minutes to remove all cell debris. A 40% percoll density gradient was then formed by mixing 8 ml of adjusted percoll (45 ml percoll and 5 ml 10× relaxation buffer) with 12 ml of relaxation buffer, containing lmM ATP. 5 ml of cell lysate was loaded onto each gradient and centrifuged at 20,000 rpm for 35 minutes at 4° C. The cytotoxic granules, which migrate to the dense region of the gradient, were collected by harvesting 1 ml fractions from the bottom of the gradient using a long spinal tap needle attached to a syringe. The fractions were concentrated (individually) in an ultracentrifuge (Beckman Coulter) at 100,000 rpm for 3 hours at 4° C. and the granules obtained from the surface of the pelleted percoll by washing them into a small volume of resuspension buffer. To release the perforin, the granules were disrupted by resuspension in an equal volume of 2 M NaCl and three cycles of freezing in liquid nitrogen and thawing in a 37° C. waterbath.
Jurkat cells were labelled with 50 μCi ^51Chromium in 100 ul unsupplemented RPMI medium at 37° C. for 1 hour. ^51Cr-labelled cells were then resuspended in HBSS buffer (CSL Ltd.) with or without 2 mM EGTA. […] Granule fraction #8 (determined by western analysis to contain the highest perforin content) was serially diluted in HE buffer and incubated with target cells in a final volume of 200 μl, for 4 hours at 37° C. The spontaneous release of ^51Cr was determined by incubating the target cells with HE buffer alone and the maximum release was determined by adding HCl to a final concentration of 1 M. After 4 hours, the plates were centrifuged at 1500 rpm, 100 μl of supernatant was harvested and the released radioactivity was measured in a Wizard 1470 Gamma counter. Cytotoxicity was expressed as a percentage specific ^51Cr release after subtracting spontaneous release. The percent specific lysis was calculated as follows: 100× [(experimental release—spontaneous release)/(maximum release—spontaneous release)].

sheep RBC membranes = test: Calcium-dependent membrane binding of recombinant perforin; conditions: 1 mM CaCl2, sheep RBC
Protocol: (§1) Perforin cDNA was cloned into the pFastBac vector and overexpressed in Sf-21 cells cultured in SF900-II SFM medium using a Bac-to-Bac kit (Invitrogen) and perforin was purified, all according to the manufacturer's instructions. Small amounts of recombinant WT and the G428E perforin mutant protein were obtained.
To study the calcium-dependent membrane binding of perforin, 2×10^6 sheep RBCs were resuspended in 200 μL 20 mM Hepes-150 mM NaCl buffer (pH 7.4) supplemented with 1 mM CaCl2. An aliquot of the purified perforin was added to the cell suspension for 5 min on ice. The cells were pelleted at 16,000 g for 10 s, the supernatant promptly removed, and the cells lysed in ice cold water. The lysate was centrifuged for 20 min at 16,000 g at 4° C. The pellet was washed once, dissolved in SDS-PAGE loading buffer, and analyzed by Western blotting.

[2] = Storage stability of purified recombinant perforin at 4° C.; conditions: purified recombinant human perforin, storage at 4° C.
[3] = Lytic activity of purified recombinant (baculovirus) perforin; format: biochemical; conditions: baculovirus expression system
From the text: as §1

B1: WT-Pfp: wild type mouse perforin, recombinantly expressed; in b333 WT perforin is recombinant human (protein)
chain: PCYTATRSECKQKHKFVPGVWMAGEGMDVTTLRRSGSFPVNTQRFLRPDRTCTLCKNSLMRDATQRLPVAITHWRPHSSHCQRNVAAAKVHSTEGVAREAAANINNDWRVGLDVNPRPEANMRASVAGSHSKVANFAAEKTYQDQYNFNSDTVECRMYSFRLVQKPPLHLDFKKALRALPRNFNSSTEHAYHRLISSYGTHFITAVDLGGRISVLTALRTCQLTLNGLTADEVGDCLNVEAQVSIGAQASVSSEYKACEEKKKQHKMATSFHQTYRERHVEVLGGPLDSTHDLLFGNQATPEQFSTWTASLPSNPGLVDYSLEPLHTLLEEQNPKREALRQAISHYIMSRARWQNCSRPCRSGQHKSSHDSCQCECQDSKVTNQDCCPRQRGLAHLVVSNFRAEHLWGDYTTATDAYLKVFFGGQEFRTGVVWNNNNPRWTDKMDFENVLLSTGGPLRVQVWDADYGWDDDLLGSCDRSPHSGFHEVTCELNHGRVKFSYHAKCLPHLTGGTCLEYAPQGLLGDPPGNRSGAVW
lysis of sRBC by disrupted granules (haemoglobin release) [1]: almost complete RBC lysis
specific lysis of Jurkat cells by granules (Jurkat cells): approximately 65%
calcium-dependent plasma membrane binding (sheep RBC membranes): essentially all the added perforin bound
stability of lytic activity on storage [2]: stable under these storage conditions for several months

B2: recombinant human A91V: recombinant human A91V perforin from the baculovirus expression system (protein, UniProt P14222 22-555, looked up, variant A91V)
Perforin-1: PCHTAARSECKRSHKFVPGAWLAGEGVDVTSLRRSGSFPVDTQRFLRPDGTCTLCENALQEGTLQRLPLVLTNWRAQGSGCQRHVTRAKVSSTEAVARDAARSIRNDWKVGLDVTPKPTSNVHVSVAGSHSQAANFAAQKTHQDQYSFSTDTVECRFYSFHVVHTPPLHPDFKRALGDLPHHFNASTQPAYLRLISNYGTHFIRAVELGGRISALTALRTCELALEGLTDNEVEDCLTVEAQVNIGIHGSISAEAKACEEKKKKHKMTASFHQTYRERHSEVVGGHHTSINDLLFGIQAGPEQYSAWVNSLPGSPGLVDYTLEPLHVLLDSQDPRREALRRALSQYLTDRARWRDCSRPCPPGRQKSPRDPCQCVCHGSAVTTQDCCPRQRGLAQLEVTFIQAWGLWGDWFTATDAYVKLFFGGQELRTSTVWDNNNPIWSVRLDFGDVLLATGGPLRLQVWDQDSGRDDDLLGTCDQAPKSGSHEVRCNLNHGHLKFRYHARCLPHLGGGTCLDYVPQMLLGEPPGNRSGAVW
modifications: baculovirus-expressed
notes: recombinant human A91V perforin from the baculovirus expression system
cytolytic activity of recombinant protein relative to WT perforin [3]: < 10 % of WT
stability of lytic activity on storage [2]: undetectable levels after 48 hours
